B3: bovine α1-acid glycoprotein (AGP) (natural protein)
chain: QSPECANLMTVAPITNATMDLLSGKWFYIGSAFRNPEYNKSARAIQAAFFYLEPRHAEDKLITREYQTIEDKCVYNCSFIKIYRQNGTLSKVESDREHFVDLLLSKHFRTFMLAASWNGTKNVGVSFYADKPEVTQEQKKEFLDVIKCIGIQESEIIYTDEKKDACGPLEKQHEEERKKETEAS
modifications: glycans that contain both Neu5Ac and Neu5Gc
notes: also called Bovine α1-AGP; bovine AGP

Holding throughout (settings): both partners purified
Experiment [1] concerns the target B3. Kind of experiment: SPR; Biacore T100; SubB or SubB mutant immobilised on a series S CM5 chip (flow cell 1 blank); AGP flowed over, 0.01-100 µM in range finding; single cycle kinetics.
The target in experiment [2] is B3. The experiment can be described thus: SPR.
Experiment [3] deals with T1, SubB ΔS106/ΔT107 (Escherichia coli, UniProt Q6EZC3 24-141, ΔS106/ΔT107).
T1 construct: source: E. coli BL21(DE3), pET-23(+), purified (Ni-NTA)
Kind of experiment: SPR. (SPR reads the build-up and loss of mass on a sensor chip optically.)

B1: Subtilase cytotoxin B subunit (SubB), wild type (natural protein)
chain: EWTGDARDGMFSGVVITQFHTGQIDNKPYFCIEGKQSAGSSISACSMKNSSVWGASFSTLYNQALYFYTTGQPVRIYYKPGVWTYPPFVKALTSNALVGLSTCTTSTECFGPDRKKNS
notes: also called Wild type SubB; wild-type SubB; source: E. coli BL21(DE3), pET-23(+), purified (Ni-NTA)
By Kd is commonly meant the concentration at which binding is half-saturated. As to B1, the Kd in experiment [1] stood at 0.156 ± 0.022 µM.

B2: SubB S106A/T107A (natural protein)
chain: EWTGDARDGMFSGVVITQFHTGQIDNKPYFCIEGKQSAGSSISACSMKNSSVWGASFSTLYNQALYFYTTGQPVRIYYKPGVWTYPPFVKALTSNALVGLSTCTTAAECFGPDRKKNS
notes: source: E. coli BL21(DE3), pET-23(+), purified (Ni-NTA)
For the molecule B2, in experiment [2], the Kd came to 0.164 ± 0.01 µM.

The molecule B3 returned a Kd in experiment [3] of 0.115 ± 0.037 µM.

B4: SubB ΔS106/ΔT107/E108D (natural protein)
chain: EWTGDARDGMFSGVVITQFHTGQIDNKPYFCIEGKQSAGSSISACSMKNSSVWGASFSTLYNQALYFYTTGQPVRIYYKPGVWTYPPFVKALTSNALVGLSTCTTDCFGPDRKKNS
notes: as for B2
Take B4: in experiment [2], the Kd is 0.0325 ± 0.0026 µM.

These data come from article PMC5431456, “Structure aided design of a Neu5Gc specific lectin” (Scientific Reports, 2017).
